Patent US20200199250A1 (KYMAB, published 2020)

Target: human factor X (human, UniProt P00742 41-179; P00742 183-488)
Test: cell-based or functional assay

Sequence of human factor X (P00742 41-179, chain 1 of 2): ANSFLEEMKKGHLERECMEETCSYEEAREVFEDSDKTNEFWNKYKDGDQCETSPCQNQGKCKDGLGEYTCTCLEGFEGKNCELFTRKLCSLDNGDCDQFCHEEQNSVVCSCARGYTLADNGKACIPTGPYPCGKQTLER
Sequence of human factor X (P00742 183-488, chain 2 of 2): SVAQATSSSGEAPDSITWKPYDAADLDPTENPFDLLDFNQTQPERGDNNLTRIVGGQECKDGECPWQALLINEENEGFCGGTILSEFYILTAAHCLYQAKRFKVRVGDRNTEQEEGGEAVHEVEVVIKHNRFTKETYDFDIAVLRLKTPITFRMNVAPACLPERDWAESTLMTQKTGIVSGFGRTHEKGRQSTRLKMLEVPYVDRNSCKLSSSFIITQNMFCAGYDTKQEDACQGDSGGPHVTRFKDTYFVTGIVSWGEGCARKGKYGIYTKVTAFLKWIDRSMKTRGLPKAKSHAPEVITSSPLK

B1: IXAX-1280.0999.0325 (bispecific antibody, human IgG4 S228P, lambda)
heavy 1: EVQLVESGGGFVQPGGSLRLSCAVSGFRFNSYWMSWVRQAPGKGLEWVANINQDGSRKFYVASVKGRFTMSRDNAKKSVYVQMNSLRAEDTAVYYCAREGYSSIKYYGMDVWGQGTTVTVSSASTKGPSVFPLAPCSRSTSESTAALGCLVKDYFPEPVTVSWNSGALTSGVHTFPAVLQSSGLYSLSSVVTVPSSSLGTQTYTCNVDHKPSNTKVDKRVESKYGPPCPPCPAPEFLGGPSVFLFPPKPKDTLMISRTPEVTCVVVDVSQEDPEVQFNWYVDGVEVHNAKTKPREEQYNSTYRVVSVLTVLHQDWLNGKEYKCKVSNKGLPSSIEKTISKAKGQPREPQVYTLPPSQEEMTKNQVSLTCLVKGFYPSDIAVEWESNGQPENNYKTTPPVLDSDGSFFLYSKLTVDKSRWQEGNVFSCSVMHEALHNHYTQESLSLSP
heavy 2: QVQLIQSGAKVKKPGASVKVSCKASRYKFTSYYMHWVRQAPGQGLEWMGIINPKSGSTSYAQKFQGRVTMTRDTSTSTVYMELSSLRSEDTAVYYCARDGYGSFSRLIQLWGQGTLVTVSSASTKGPSVFPLAPCSRSTSESTAALGCLVKDYFPEPVTVSWNSGALTSGVHTFPAVLQSSGLYSLSSVVTVPSSSLGTQTYTCNVDHKPSNTKVDKRVESKYGPPCPPCPAPEFLGGPSVFLFPPKPKDTLMISRTPEVTCVVVDVSQEDPEVQFNWYVDGVEVHNAKTKPREEQYNSTYRVVSVLTVLHQDWLNGKEYKCKVSNKGLPSSIEKTISKAKGQPREPQVYTLPPSQKEMTKNQVSLTCLVKGFYPSDIAVEWESNGQPENNYKTTPPVLDSDGSFFLYSKLTVDKSRWQEGNVFSCSVMHEALHNHYTQKSLSLSP
light: YVLTQPPSVSVAPGETARITCGGDNIGRKSVYWYQQKSGQAPVLVIYYDSDRPSGIPERFSGSNSGNTATLTISRVEAGDEADYYCQVWDGSSDHWVFGGGTKLTVLGQPKAAPSVTLFPPSSEELQANKATLVCLISDFYPGAVTVAWKADSSPVKAGVETTTPSKQSNNKYAASSYLSLTPEQWKSHKSYSCQVTHEGSTVEKTVAPTECS
Q: B1 was tested. Which “EC50, Hyphen chromogenic FVIII mimetic activity assay (FXa generation with added FX and FIXa in diluted FVIII deficient plasma; OD405)” value did it give?
A: 5.92 nM
